Reference: patent publication US20080292628A1

Biological target: human VEGF (human) (UniProt P15692)
Assay: cell-based or functional assay

Chain of UniProt P15692 (P15692 other isoform, or with tags, fused parts or gaps limits assumed): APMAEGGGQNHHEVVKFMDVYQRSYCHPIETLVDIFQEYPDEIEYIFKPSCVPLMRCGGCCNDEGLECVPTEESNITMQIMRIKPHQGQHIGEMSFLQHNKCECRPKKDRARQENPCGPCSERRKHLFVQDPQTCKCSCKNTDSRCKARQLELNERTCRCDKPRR

VEGFR1-Fc-IL-1ra (Fc fusion)
EC50, inhibition of VEGF (10 ng/ml) dependent HUVE cell proliferation: 15 ng/mL
